Assay results: article PMC3913725 (Cell, 2013)

Assays:
Experiment in all cases: pull-down
GST-AP-1 core, wild type [1] = biological target: T1, GST-AP-1 core, wild type (murine | human, UniProt P22892 1-595; Q10567 1-584; Q96PC3 1-154; P35585 1-423)
GST-AP-1 core, wild type [2] = biological target: T1, GST-AP-1 core, wild type; remark: listed apart in the source
GST-AP-1 core, wild type [3] = biological target: T1, GST-AP-1 core, wild type; remark: listed apart in the source

T1 sequence (P22892 1-595, chain 1 of 4): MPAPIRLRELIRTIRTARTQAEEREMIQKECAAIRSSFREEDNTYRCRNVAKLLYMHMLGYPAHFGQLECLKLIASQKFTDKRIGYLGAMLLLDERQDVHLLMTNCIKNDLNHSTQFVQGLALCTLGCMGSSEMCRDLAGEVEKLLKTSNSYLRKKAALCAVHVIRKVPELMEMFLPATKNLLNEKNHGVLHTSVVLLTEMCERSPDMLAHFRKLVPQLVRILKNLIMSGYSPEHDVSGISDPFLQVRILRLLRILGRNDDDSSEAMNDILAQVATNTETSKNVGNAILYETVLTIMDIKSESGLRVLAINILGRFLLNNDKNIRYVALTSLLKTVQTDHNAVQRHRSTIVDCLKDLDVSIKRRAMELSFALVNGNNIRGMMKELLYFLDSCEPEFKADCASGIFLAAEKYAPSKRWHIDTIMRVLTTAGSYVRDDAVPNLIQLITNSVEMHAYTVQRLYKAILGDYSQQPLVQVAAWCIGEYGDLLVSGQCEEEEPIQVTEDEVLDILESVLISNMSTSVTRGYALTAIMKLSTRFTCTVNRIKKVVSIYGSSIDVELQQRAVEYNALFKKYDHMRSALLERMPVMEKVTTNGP
T1 sequence (Q10567 1-584, chain 2 of 4): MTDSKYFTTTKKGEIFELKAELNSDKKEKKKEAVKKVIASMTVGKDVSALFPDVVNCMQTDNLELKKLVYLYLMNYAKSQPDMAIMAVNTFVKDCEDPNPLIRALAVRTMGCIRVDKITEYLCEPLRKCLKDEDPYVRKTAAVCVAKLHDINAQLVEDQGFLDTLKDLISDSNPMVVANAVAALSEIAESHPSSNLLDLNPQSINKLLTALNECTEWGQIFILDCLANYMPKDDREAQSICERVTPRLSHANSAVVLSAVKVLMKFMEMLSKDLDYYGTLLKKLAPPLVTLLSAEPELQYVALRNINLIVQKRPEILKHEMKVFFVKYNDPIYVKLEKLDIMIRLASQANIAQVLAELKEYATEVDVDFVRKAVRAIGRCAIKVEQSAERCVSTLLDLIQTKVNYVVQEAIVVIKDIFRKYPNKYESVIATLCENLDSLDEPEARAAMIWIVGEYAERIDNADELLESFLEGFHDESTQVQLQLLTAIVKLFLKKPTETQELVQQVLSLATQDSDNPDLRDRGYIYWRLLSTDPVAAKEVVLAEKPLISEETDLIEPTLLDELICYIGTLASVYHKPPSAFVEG
T1 sequence (Q96PC3 whole entry, chain 3 of 4): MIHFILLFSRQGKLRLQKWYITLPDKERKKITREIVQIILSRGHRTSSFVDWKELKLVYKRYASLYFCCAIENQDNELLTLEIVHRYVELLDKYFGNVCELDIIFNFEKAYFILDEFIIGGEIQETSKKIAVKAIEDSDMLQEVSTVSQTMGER
T1 sequence (P35585 whole entry, chain 4 of 4): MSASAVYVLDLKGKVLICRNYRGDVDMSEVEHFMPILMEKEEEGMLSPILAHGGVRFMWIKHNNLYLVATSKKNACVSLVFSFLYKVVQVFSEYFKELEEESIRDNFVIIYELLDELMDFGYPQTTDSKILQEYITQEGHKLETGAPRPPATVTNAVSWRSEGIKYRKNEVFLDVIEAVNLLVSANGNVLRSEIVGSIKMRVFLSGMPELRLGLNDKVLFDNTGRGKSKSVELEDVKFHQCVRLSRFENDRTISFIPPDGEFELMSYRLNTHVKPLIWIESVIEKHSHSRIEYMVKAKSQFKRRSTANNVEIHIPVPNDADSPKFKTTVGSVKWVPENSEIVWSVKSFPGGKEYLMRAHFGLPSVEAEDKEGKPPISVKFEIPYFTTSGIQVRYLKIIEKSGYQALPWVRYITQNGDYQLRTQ

Binder | Kd (GST-AP-1 core, wild type [1]) | fold increase of Arf1 bound with 20 μM VAMP4 peptide, against no peptide (GST-AP-1 core, wild type [2]) | binding result (GST-AP-1 core, wild type [3])
His6-Arf1^Δ1-16 Q71L, GTP-loaded (domain or fragment) not shown | 20 ± 0.6 µM | 4 fold | 
His-Arf1^Δ16-Q71L W172D (domain or fragment) not shown |  |  | binds
His-Arf1^Δ16-Q71L A136P/A137H (domain or fragment) not shown |  |  | binds
